Patent US20250361311A1 (published 2025)

How the values were obtained:
70392_189[TL1A]H1L1 = experiment: SPR; monovalent Fab
Comparator 2 = experiment: SPR; monovalent Fab
70392_069[TL1A]H1L1 = experiment: SPR; monovalent Fab
70416_092[TL1A]H1L1 = experiment: SPR; monovalent Fab
70392_074[TL1A]H1L1 = experiment: SPR; monovalent Fab
70392_201[TL1A]H1L1 = experiment: SPR; monovalent Fab
70417_111[TL1A]H1L1 = experiment: SPR; monovalent Fab
70416_073[TL1A]H1L1 = experiment: SPR; monovalent Fab
recombinant TL1A = molecular target: T1, recombinant TL1A (UniProt O95150 72-251); experiment: SPR; run in different experiment under similar conditions
T1 chain: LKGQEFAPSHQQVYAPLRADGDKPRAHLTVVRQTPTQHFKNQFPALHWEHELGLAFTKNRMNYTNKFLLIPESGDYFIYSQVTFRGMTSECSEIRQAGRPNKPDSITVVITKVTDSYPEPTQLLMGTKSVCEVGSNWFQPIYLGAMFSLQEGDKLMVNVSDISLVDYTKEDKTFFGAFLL

human scTL1A = molecular target: T2, human scTL1A (human, UniProt O95150 72-251, biotinylated (captured with the Biotin CAPture kit); site not stated); experiment: SPR; monovalent Fab
T2 chain: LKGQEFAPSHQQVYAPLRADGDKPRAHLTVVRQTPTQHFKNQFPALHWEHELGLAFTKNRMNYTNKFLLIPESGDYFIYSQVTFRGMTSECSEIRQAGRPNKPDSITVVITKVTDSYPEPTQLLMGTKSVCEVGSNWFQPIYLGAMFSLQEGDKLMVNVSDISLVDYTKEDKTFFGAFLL

Binder | Kd (70392_189[TL1A]H1L1) [nM] | Kd (Comparator 2) [nM] | Kd (70392_069[TL1A]H1L1) [nM] | Kd (70416_092[TL1A]H1L1) [nM] | Kd (70392_074[TL1A]H1L1) [nM] | Kd (70392_201[TL1A]H1L1) [nM] | Kd (70417_111[TL1A]H1L1) [nM] | Kd (70416_073[TL1A]H1L1) [nM] | Kd (recombinant TL1A) [nM] | Kd (human scTL1A) [nM]
scTL1A (ligand, biotinylated (captured with the Biotin CAPture kit); site not stated) LKGQEFAPSHQQVYAPLRADGDKPRAHLTVVRQTPTQHFKNQFPALHWEHELGLAFTKNRMNYTNKFLLIPESGDYFIYSQVTFRGMTSECSEIRQAGRPNKPDSITVVITKVTDSYPEPTQLLMGTKSVCEVGSNWFQPIYLGAMFSLQEGDKLMVNVSDISLVDYTKEDKTFFGAFLL | 0.895 | 0.0708 | 1.69 | 3.12 | 6.11 | 0.128 | 6.84 | 6.61 |  | 
70416_041[TL1A]H1L1 Fab (Fab, V domains shown) VH: QVQLVQSGAEVKKPGASVKVSCKVSGFSVTSYNVHWVRQAPGQGLEWMGVMWSGGNTDYNSKFQGRVTMTRDTSTNTVYMELSSLRSEDTAVYYCARAGRYYHDSNYYWDFPYWGQGTLVTVSS VL: DIQMTQSPSSVSASVGDRVTITCRASEDIYSGLAWYQQKPGKSPKLLIYGASSLQDGVPSRFSGSGSGTDYTLTISSLQPEDFATYFCQEGLKSPYTFGAGTKLEIK |  |  |  |  |  |  |  |  | 0.104 | 0.104
